To fix the notation:
B1: bovine papillomavirus type 1 (BPV1) L2 minor capsid protein (other)
chain: MSARKRVKRASAYDLYRTCKQAGTCPPDVIPKVEGDTIADKILKFGGLAIYLGGLGIGTWSTGRVAAGGSPRYTPLRTAGSTSSLASIGSRAVTAGTRPSIGAGIPLDTLETLGALRPGVYEDTVLPEAPAIVTPDAVPADSGLDALSIGTDSSTETLITLLEPEGPEDIAVLELQPLDRPTWQVSNAVHQSSAYHAPLQLQSSIAETSGLENIFVGGSGLGDTGGENIELTYFGSPRTSTPRSIASKSRGILNWFSKRYYTQVPTEDPEVFSSQTFANPLYEAEPAVLKGPSGRVGLSQVYKPDTLTTRSGTEVGPQLHVRYSLSTIHEDVEAIPYTVDENTQGLAFVPLHEEQAGFEEIELDDFSETHRLLPQNTSSTPVGSGVRRSLIPTQEFSATRPTGVVTYGSPDTYSASPVTDPDSTSPSLVIDDTTTTPIIIIDGHTVDLYSSNYTLHPSLLRKRKKRKHA
notes: mature; Expressed from recombinant Semliki Forest virus in BHK-21 or BPHE-1 cells; also called BPV L2

Test [1] has as its target T1, bovine papillomavirus type 1 (BPV1) L1 major capsid protein (bovine papillomavirus type 1 (BPV1), UniProt P03103 1-495).
T1 construct: mature; Expressed from recombinant Semliki Forest virus in BHK-21 or BPHE-1 cells; self-assembles into VLPs; also called BPV L1
Put plainly: co-expression from recombinant SFV in BHK-21 cells; heading of the section.

Test [2] concerns the target B1. Briefly: coimmunoprecipitation; cosedimentation in sucrose gradients.

Regarding B1, the binding result in test [1] is “binds”.

B2: BPV E2 protein (full-length 48 kD form) (other)
chain: METACERLHVAQETQMQLIEKSSDKLQDHILYWTAVRTENTLLYAARKKGVTVLGHCRVPHSVVCQERAKQAIEMQLSLQELSKTEFGDEPWSLLDTSWDRYMSEPKRCFKKGARVVEVEFDGNASNTNWYTVYSNLYMRTEDGWQLAKAGADGTGLYYCTMAGAGRIYYSRFGDEAARFSTTGHYSVRDQDRVYAGVSSTSSDFRDRPDGVWVASEGPEGDPAGKEAEPAQPVSSLLGSPACGPIRAGLGWVRDGPRSHPYNFPAGSGGSILRSSSTPVQGTVPVDLASRQEEEEQSPDSTEEEPVTLPRRTTNDGFHLLKAGGSCFALISGTANQVKCYRFRVKKNHRHRYENCTTTWFTVADNGAERQGQAQILITFGSPSQRQDFLKHVPLPPGMNISGFTASLDF
notes: mature; BPHE-1 cells express three forms of E2; SFV-E2 gives only the 48 kD form
On to B2, for which the binding result in test [2] is listed as “no binding”.

These data come from US20030207446A1 (US Dept. of Health and Human Services, published 2003).
